Assay results as given in US20210388087A1 (Chugai, published 2021).

Target: T1, Human CD137 ECD (human)
T1 construct: entry includes C-terminal His-tag and biotin acceptor peptide; also called human CD137 extracellular domain; 4-1BB
Experiment: Biacore SPR, vs parent H183/L072

T1 sequence (chain, as listed by the source limits assumed): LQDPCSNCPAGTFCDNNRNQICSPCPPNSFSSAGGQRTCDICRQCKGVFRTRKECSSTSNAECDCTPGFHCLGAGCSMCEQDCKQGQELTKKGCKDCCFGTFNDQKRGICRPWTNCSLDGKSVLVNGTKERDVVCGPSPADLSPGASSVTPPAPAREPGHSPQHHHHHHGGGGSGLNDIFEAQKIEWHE

Row | fold change of affinity | Binder
1 | 0 fold | H183/L072 VL K50W (antibody, name in Kabat numbering, V domains shown, Dual-Ig) VH: QVQLVESGGGLVQPGRSLRLSCAASGFTFSNAWMHWVRQAPGKGLEWVAQIKDKGNAYAAYYAPSVKGRFTISRDDSKNSIYLQMNSLKTEDTAVYYCHYVHYASASTVLPAFGVDAWGQGTTVTVSS VL: DIVMTQSPLSLPVTPGEPASISCQASQELVHMNRNTYLHWYQQKPGQAPRLLIYWVSNRFPGVPDRFSGSGSGTDFTLKISRVEAEDVGVYYCAQGTSVPFTFGQGTKLEIK
2 | 0.3 fold | H183/L072 VL L27bW (antibody, name in Kabat numbering, V domains shown, Dual-Ig) VH: QVQLVESGGGLVQPGRSLRLSCAASGFTFSNAWMHWVRQAPGKGLEWVAQIKDKGNAYAAYYAPSVKGRFTISRDDSKNSIYLQMNSLKTEDTAVYYCHYVHYASASTVLPAFGVDAWGQGTTVTVSS VL: DIVMTQSPLSLPVTPGEPASISCQASQEWVHMNRNTYLHWYQQKPGQAPRLLIYKVSNRFPGVPDRFSGSGSGTDFTLKISRVEAEDVGVYYCAQGTSVPFTFGQGTKLEIK
3 | 1.1 fold | H183/L072 VL L27bV (antibody, name in Kabat numbering, V domains shown, Dual-Ig) VH: QVQLVESGGGLVQPGRSLRLSCAASGFTFSNAWMHWVRQAPGKGLEWVAQIKDKGNAYAAYYAPSVKGRFTISRDDSKNSIYLQMNSLKTEDTAVYYCHYVHYASASTVLPAFGVDAWGQGTTVTVSS VL: DIVMTQSPLSLPVTPGEPASISCQASQEVVHMNRNTYLHWYQQKPGQAPRLLIYKVSNRFPGVPDRFSGSGSGTDFTLKISRVEAEDVGVYYCAQGTSVPFTFGQGTKLEIK
4 | 0.1 fold | H183/L072 VL L33G (antibody, name in Kabat numbering, V domains shown, Dual-Ig) VH: QVQLVESGGGLVQPGRSLRLSCAASGFTFSNAWMHWVRQAPGKGLEWVAQIKDKGNAYAAYYAPSVKGRFTISRDDSKNSIYLQMNSLKTEDTAVYYCHYVHYASASTVLPAFGVDAWGQGTTVTVSS VL: DIVMTQSPLSLPVTPGEPASISCQASQELVHMNRNTYGHWYQQKPGQAPRLLIYKVSNRFPGVPDRFSGSGSGTDFTLKISRVEAEDVGVYYCAQGTSVPFTFGQGTKLEIK
5 | 0.2 fold | H183/L072 VL L27bE (antibody, name in Kabat numbering, V domains shown, Dual-Ig) VH: QVQLVESGGGLVQPGRSLRLSCAASGFTFSNAWMHWVRQAPGKGLEWVAQIKDKGNAYAAYYAPSVKGRFTISRDDSKNSIYLQMNSLKTEDTAVYYCHYVHYASASTVLPAFGVDAWGQGTTVTVSS VL: DIVMTQSPLSLPVTPGEPASISCQASQEEVHMNRNTYLHWYQQKPGQAPRLLIYKVSNRFPGVPDRFSGSGSGTDFTLKISRVEAEDVGVYYCAQGTSVPFTFGQGTKLEIK
6 | 0.3 fold | H183/L072 VL L27bF (antibody, name in Kabat numbering, V domains shown, Dual-Ig) VH: QVQLVESGGGLVQPGRSLRLSCAASGFTFSNAWMHWVRQAPGKGLEWVAQIKDKGNAYAAYYAPSVKGRFTISRDDSKNSIYLQMNSLKTEDTAVYYCHYVHYASASTVLPAFGVDAWGQGTTVTVSS VL: DIVMTQSPLSLPVTPGEPASISCQASQEFVHMNRNTYLHWYQQKPGQAPRLLIYKVSNRFPGVPDRFSGSGSGTDFTLKISRVEAEDVGVYYCAQGTSVPFTFGQGTKLEIK
7 | 0.9 fold | H183/L072 VL L33A (antibody, name in Kabat numbering, V domains shown, Dual-Ig) VH: QVQLVESGGGLVQPGRSLRLSCAASGFTFSNAWMHWVRQAPGKGLEWVAQIKDKGNAYAAYYAPSVKGRFTISRDDSKNSIYLQMNSLKTEDTAVYYCHYVHYASASTVLPAFGVDAWGQGTTVTVSS VL: DIVMTQSPLSLPVTPGEPASISCQASQELVHMNRNTYAHWYQQKPGQAPRLLIYKVSNRFPGVPDRFSGSGSGTDFTLKISRVEAEDVGVYYCAQGTSVPFTFGQGTKLEIK
8 | 0.3 fold | H183/L072 VL L27bK (antibody, name in Kabat numbering, V domains shown, Dual-Ig) VH: QVQLVESGGGLVQPGRSLRLSCAASGFTFSNAWMHWVRQAPGKGLEWVAQIKDKGNAYAAYYAPSVKGRFTISRDDSKNSIYLQMNSLKTEDTAVYYCHYVHYASASTVLPAFGVDAWGQGTTVTVSS VL: DIVMTQSPLSLPVTPGEPASISCQASQEKVHMNRNTYLHWYQQKPGQAPRLLIYKVSNRFPGVPDRFSGSGSGTDFTLKISRVEAEDVGVYYCAQGTSVPFTFGQGTKLEIK
9 | 0.4 fold | H183/L072 VL L27bT (antibody, name in Kabat numbering, V domains shown, Dual-Ig) VH: QVQLVESGGGLVQPGRSLRLSCAASGFTFSNAWMHWVRQAPGKGLEWVAQIKDKGNAYAAYYAPSVKGRFTISRDDSKNSIYLQMNSLKTEDTAVYYCHYVHYASASTVLPAFGVDAWGQGTTVTVSS VL: DIVMTQSPLSLPVTPGEPASISCQASQETVHMNRNTYLHWYQQKPGQAPRLLIYKVSNRFPGVPDRFSGSGSGTDFTLKISRVEAEDVGVYYCAQGTSVPFTFGQGTKLEIK
10 | 0.3 fold | H183/L072 VL L27bH (antibody, name in Kabat numbering, V domains shown, Dual-Ig) VH: QVQLVESGGGLVQPGRSLRLSCAASGFTFSNAWMHWVRQAPGKGLEWVAQIKDKGNAYAAYYAPSVKGRFTISRDDSKNSIYLQMNSLKTEDTAVYYCHYVHYASASTVLPAFGVDAWGQGTTVTVSS VL: DIVMTQSPLSLPVTPGEPASISCQASQEHVHMNRNTYLHWYQQKPGQAPRLLIYKVSNRFPGVPDRFSGSGSGTDFTLKISRVEAEDVGVYYCAQGTSVPFTFGQGTKLEIK
11 | 0.9 fold | H183/L072 VL L33H (antibody, name in Kabat numbering, V domains shown, Dual-Ig) VH: QVQLVESGGGLVQPGRSLRLSCAASGFTFSNAWMHWVRQAPGKGLEWVAQIKDKGNAYAAYYAPSVKGRFTISRDDSKNSIYLQMNSLKTEDTAVYYCHYVHYASASTVLPAFGVDAWGQGTTVTVSS VL: DIVMTQSPLSLPVTPGEPASISCQASQELVHMNRNTYHHWYQQKPGQAPRLLIYKVSNRFPGVPDRFSGSGSGTDFTLKISRVEAEDVGVYYCAQGTSVPFTFGQGTKLEIK
12 | 0.1 fold | H183/L072 VL L33E (antibody, name in Kabat numbering, V domains shown, Dual-Ig) VH: QVQLVESGGGLVQPGRSLRLSCAASGFTFSNAWMHWVRQAPGKGLEWVAQIKDKGNAYAAYYAPSVKGRFTISRDDSKNSIYLQMNSLKTEDTAVYYCHYVHYASASTVLPAFGVDAWGQGTTVTVSS VL: DIVMTQSPLSLPVTPGEPASISCQASQELVHMNRNTYEHWYQQKPGQAPRLLIYKVSNRFPGVPDRFSGSGSGTDFTLKISRVEAEDVGVYYCAQGTSVPFTFGQGTKLEIK
13 | 0.8 fold | H183/L072 VL L27bP (antibody, name in Kabat numbering, V domains shown, Dual-Ig) VH: QVQLVESGGGLVQPGRSLRLSCAASGFTFSNAWMHWVRQAPGKGLEWVAQIKDKGNAYAAYYAPSVKGRFTISRDDSKNSIYLQMNSLKTEDTAVYYCHYVHYASASTVLPAFGVDAWGQGTTVTVSS VL: DIVMTQSPLSLPVTPGEPASISCQASQEPVHMNRNTYLHWYQQKPGQAPRLLIYKVSNRFPGVPDRFSGSGSGTDFTLKISRVEAEDVGVYYCAQGTSVPFTFGQGTKLEIK
14 | 0.1 fold | H183/L072 VL L27bG (antibody, name in Kabat numbering, V domains shown, Dual-Ig) VH: QVQLVESGGGLVQPGRSLRLSCAASGFTFSNAWMHWVRQAPGKGLEWVAQIKDKGNAYAAYYAPSVKGRFTISRDDSKNSIYLQMNSLKTEDTAVYYCHYVHYASASTVLPAFGVDAWGQGTTVTVSS VL: DIVMTQSPLSLPVTPGEPASISCQASQEGVHMNRNTYLHWYQQKPGQAPRLLIYKVSNRFPGVPDRFSGSGSGTDFTLKISRVEAEDVGVYYCAQGTSVPFTFGQGTKLEIK
15 | 1.1 fold | H183/L072 VL L27bI (antibody, name in Kabat numbering, V domains shown, Dual-Ig) VH: QVQLVESGGGLVQPGRSLRLSCAASGFTFSNAWMHWVRQAPGKGLEWVAQIKDKGNAYAAYYAPSVKGRFTISRDDSKNSIYLQMNSLKTEDTAVYYCHYVHYASASTVLPAFGVDAWGQGTTVTVSS VL: DIVMTQSPLSLPVTPGEPASISCQASQEIVHMNRNTYLHWYQQKPGQAPRLLIYKVSNRFPGVPDRFSGSGSGTDFTLKISRVEAEDVGVYYCAQGTSVPFTFGQGTKLEIK
16 | 0.4 fold | H183/L072 VL L27bA (antibody, name in Kabat numbering, V domains shown, Dual-Ig) VH: QVQLVESGGGLVQPGRSLRLSCAASGFTFSNAWMHWVRQAPGKGLEWVAQIKDKGNAYAAYYAPSVKGRFTISRDDSKNSIYLQMNSLKTEDTAVYYCHYVHYASASTVLPAFGVDAWGQGTTVTVSS VL: DIVMTQSPLSLPVTPGEPASISCQASQEAVHMNRNTYLHWYQQKPGQAPRLLIYKVSNRFPGVPDRFSGSGSGTDFTLKISRVEAEDVGVYYCAQGTSVPFTFGQGTKLEIK
17 | 0.2 fold | H183/L072 VL L27bQ (antibody, name in Kabat numbering, V domains shown, Dual-Ig) VH: QVQLVESGGGLVQPGRSLRLSCAASGFTFSNAWMHWVRQAPGKGLEWVAQIKDKGNAYAAYYAPSVKGRFTISRDDSKNSIYLQMNSLKTEDTAVYYCHYVHYASASTVLPAFGVDAWGQGTTVTVSS VL: DIVMTQSPLSLPVTPGEPASISCQASQEQVHMNRNTYLHWYQQKPGQAPRLLIYKVSNRFPGVPDRFSGSGSGTDFTLKISRVEAEDVGVYYCAQGTSVPFTFGQGTKLEIK
18 | 0.3 fold | H183/L072 VL L27bS (antibody, name in Kabat numbering, V domains shown, Dual-Ig) VH: QVQLVESGGGLVQPGRSLRLSCAASGFTFSNAWMHWVRQAPGKGLEWVAQIKDKGNAYAAYYAPSVKGRFTISRDDSKNSIYLQMNSLKTEDTAVYYCHYVHYASASTVLPAFGVDAWGQGTTVTVSS VL: DIVMTQSPLSLPVTPGEPASISCQASQESVHMNRNTYLHWYQQKPGQAPRLLIYKVSNRFPGVPDRFSGSGSGTDFTLKISRVEAEDVGVYYCAQGTSVPFTFGQGTKLEIK
19 | 0.4 fold | H183/L072 VL L27bM (antibody, name in Kabat numbering, V domains shown, Dual-Ig) VH: QVQLVESGGGLVQPGRSLRLSCAASGFTFSNAWMHWVRQAPGKGLEWVAQIKDKGNAYAAYYAPSVKGRFTISRDDSKNSIYLQMNSLKTEDTAVYYCHYVHYASASTVLPAFGVDAWGQGTTVTVSS VL: DIVMTQSPLSLPVTPGEPASISCQASQEMVHMNRNTYLHWYQQKPGQAPRLLIYKVSNRFPGVPDRFSGSGSGTDFTLKISRVEAEDVGVYYCAQGTSVPFTFGQGTKLEIK
20 | 0.3 fold | H183/L072 VL L33F (antibody, name in Kabat numbering, V domains shown, Dual-Ig) VH: QVQLVESGGGLVQPGRSLRLSCAASGFTFSNAWMHWVRQAPGKGLEWVAQIKDKGNAYAAYYAPSVKGRFTISRDDSKNSIYLQMNSLKTEDTAVYYCHYVHYASASTVLPAFGVDAWGQGTTVTVSS VL: DIVMTQSPLSLPVTPGEPASISCQASQELVHMNRNTYFHWYQQKPGQAPRLLIYKVSNRFPGVPDRFSGSGSGTDFTLKISRVEAEDVGVYYCAQGTSVPFTFGQGTKLEIK
21 | 0.2 fold | H183/L072 VL L27bD (antibody, name in Kabat numbering, V domains shown, Dual-Ig) VH: QVQLVESGGGLVQPGRSLRLSCAASGFTFSNAWMHWVRQAPGKGLEWVAQIKDKGNAYAAYYAPSVKGRFTISRDDSKNSIYLQMNSLKTEDTAVYYCHYVHYASASTVLPAFGVDAWGQGTTVTVSS VL: DIVMTQSPLSLPVTPGEPASISCQASQEDVHMNRNTYLHWYQQKPGQAPRLLIYKVSNRFPGVPDRFSGSGSGTDFTLKISRVEAEDVGVYYCAQGTSVPFTFGQGTKLEIK
